In the PETadex activity labels (doi:10.1016/j.jhazmat.2023.131574):

B1: unnamed (protein)
chain: MDGVLWRVRTAALMAALLALAAWALVWASPSVEAQSNPYQRGPNPTRSALTADGPFSVATYTVSRLSVSGFGGGVIYYPTGTSLTFGGIAMSPGYTADASSLAWLGRRLASHGFVVLVINTNSRFDGPDSRASQLSAALNYLRTSSPSAVRARLDANRLAVAGHSMGGGGTLRIAEQNPSLKAAVPLTPWHTDKTFNTSVPVLIVGAEADTVAPVSQHAIPFYQNLPSTTPKVYVELCNASHIAPNSNNAAISVYTISWMKLWVDNDTRYRQFLCNVNDPALCDFRTNNRHCQ
B2: unnamed (protein)
chain: MSNGYSACPAPYDHRGMRKHASLLAALPVLLAACGTTTSTLTTPAVTPQTLSGAATNPYERGPAPTTALLEAARGPYATASTTVPRSSVSDFGGATIYYPTSTADGTFGGVAISPGYTGTQASVAWLGPRLASHGFVVIVIDTLSRYDYPSSRGDQLRAALRYLTTSSAVRTRVDATRLAVMGHSMGGGGALEAAKDNPALKAAIPLTPWNTDKSWPELTTPTLIFGAQNDSVAPVSSHAIPFYTSLASTLPKAYLELRGASHGAPTSTNTTIAKYAVAWLKRFEDADRRYDPFLCPTPAVSTLLSDARSTCPFN
B3: unnamed (protein)
chain: MSNGYSACPAPYDHRGMRKHASLLAALPVLLAACGTTTSTLTTPAVTPQTLSGAATNPYERGPAPTTALLEAARGPYATASTTVPRSSVSDFGGATIYYPTSTADGTFGGVAISPGYTGTQASVAWLGPRLASHGFVVIVIDTLSRYDYPSSRGDQLRAALRYLTTSSAVRTRVDATRLAVMGHSMGGGGALEAAKDNPALKAAIPLTPWNTDKSWPELTTPTLIFGAQNDSVAPVSSHAIPFYTSLASTLPKAYLELRGASHGAPTSTNTTIAKYAVAWLKRFDADARRYDPFLCPTPAVSTLLSDARSTCPFN

Substrate: p-NP-C10
Experiment: not given
Conditions: 60 °C

| Protein | Km [µM] | kcat [s⁻¹] | kcat/Km [M⁻¹ s⁻¹] |
| --- | --- | --- | --- |
| B1 | 2680 | 8.11 | 3030 |

Substrate: p-NP-C2
Experiment: not given
Conditions: 60 °C

| Protein | Km [µM] | kcat [s⁻¹] | kcat/Km [M⁻¹ s⁻¹] |
| --- | --- | --- | --- |
| B1 | 7310 | 159 | 21800 |

Substrate: p-NP-C4
Experiment: not given
Conditions: 60 °C

| Protein | Km [µM] | kcat [s⁻¹] | kcat/Km [M⁻¹ s⁻¹] |
| --- | --- | --- | --- |
| B1 | 760 | 137 | 180000 |

Substrate: p-NP-C8
Experiment: not given
Conditions: 60 °C

| Protein | Km [µM] | kcat [s⁻¹] | kcat/Km [M⁻¹ s⁻¹] |
| --- | --- | --- | --- |
| B1 | 7440 | 107 | 14300 |

Substrate: p-NP-C10
Experiment: not given
Conditions: 50 °C

| Protein | Km [µM] | kcat [s⁻¹] | kcat/Km [M⁻¹ s⁻¹] |
| --- | --- | --- | --- |
| B2 | 930 | 2.47 | 2660 |

Substrate: p-NP-C2
Experiment: not given
Conditions: 50 °C

| Protein | Km [µM] | kcat [s⁻¹] | kcat/Km [M⁻¹ s⁻¹] |
| --- | --- | --- | --- |
| B2 | 900 | 27.5 | 30600 |

Substrate: p-NP-C4
Experiment: not given
Conditions: 50 °C

| Protein | Km [µM] | kcat [s⁻¹] | kcat/Km [M⁻¹ s⁻¹] |
| --- | --- | --- | --- |
| B2 | 190 | 30.8 | 162000 |

Substrate: p-NP-C8
Experiment: not given
Conditions: 50 °C

| Protein | Km [µM] | kcat [s⁻¹] | kcat/Km [M⁻¹ s⁻¹] |
| --- | --- | --- | --- |
| B2 | 1290 | 11.3 | 8780 |

Substrate: PCL; PBS; PHA; PLA; PUR
Experiment: Proxy for plastic degradation [Weight/mass loss]
Conditions: pH 7; 24 h

| Protein | Proxy for plastic degradation [%] |
| --- | --- |
| B3 | 79 |
